Reference: US20240368223A1
Bridges are numbered along the chain shown (N, C = ends). Primed or numbered codes have the meaning given here. The star is where a group is joined. Biotin = O=C1N[C@H]2[C@H](CS[C@H]2CCCCC(=O)*)N1; PEG4′ = amino-PEG4 spacer

Key:
[1] = biological target: human IgG (Chugai Pharmaceutical Co., Ltd.) (human); assay: SPR, BIAcore T200, IgG immobilised; equilibrium value
[2] = biological target: human IgG (Chugai Pharmaceutical Co., Ltd.) (human); assay: SPR, BIAcore T200, IgG immobilised; 1:1 binding fit

Binder: {Biotin-PEG4′}-GPDCAYHRGELVWCTFH-NH2 (disulfide 4-14) [Type I IgG-binding peptide …-NH2]
- Kd [1]: 10 nM
- Kd [2]: 9.1 nM
